Data published in patent publication US10513547B2, “Peptides and combination of peptides and scaffolds thereof for use in immunotherapy against colorectal carcinoma (CRC) and other cancers” (Immatics Biotechnologies GmbH, priority 2015, dated 2019).

Legend:
HLA-A*02:01 = HLA-A*02:01 (Homo sapiens, UniProt P04439, D140Y/D185E/D98H/E176V/E277Q/G131W/G231S/I119V/I121R/I166T/I218V/L300P/L318F/N151K/N90K/P208A/P217A/Q86G/Q94H/R138H/R169H/T345S); assay: MHC binding assay (UV-ligand exchange, beta2m ELISA, peptide exchange yield); conditions: binding to HLA-A*02:01
Source text: Candidate peptides for T cell based therapies according to the present invention were further tested for their MHC binding capacity (affinity). The individual peptide-MHC complexes were produced by UV-ligand exchange, where a UV-sensitive peptide is cleaved upon UV-irradiation, and exchanged with the peptide of interest as analyzed. Only peptide candidates that can effectively bind and stabilize the peptide-receptive MHC molecules prevent dissociation of the MHC complexes. To determine the yield of the exchange reaction, an ELISA was performed based on the detection of the light chain ([…]) of stabilized MHC complexes. The assay was performed as generally described in Rodenko et al. (Rodenko et al., 2006).
96 well MAXISorp plates (NUNC) were coated over night with 2 ug/ml streptavidin in PBS at room temperature, washed 4× and blocked for 1 h at 37° C. in 2% BSA containing blocking buffer. Refolded HLA-A*02:01/MLA-001 monomers served as standards, covering the range of 15-500 ng/ml. Peptide-MHC monomers of the UV-exchange reaction were diluted 100 fold in blocking buffer. Samples were incubated for 1 h at 37° C., washed four times, incubated with 2 ug/ml HRP conjugated anti-β2m for 1 h at 37° C., washed again and detected with TMB solution that is stopped with […]. Absorption was measured at 450 nm. Candidate peptides that show a high exchange yield (preferably higher than 50%, most preferred higher than 75%) are generally preferred for a generation and production of antibodies or fragments thereof, and/or T cell receptors or fragments thereof, as they show sufficient avidity to the MHC molecules and prevent dissociation of the MHC complexes.

CD8+ T-cells = assay: In vitro T-cell priming assay with aAPCs loaded with peptide/MHC and anti-CD28, pMHC multimer readout; format: cell-based, human; conditions: for Wells positive [%]: HLA-A*02 restricted peptides, positive wells among evaluable; for donors (in vitro immunogenicity, positive donors) / wells (in vitro immunogenicity, positive wells): HLA class I peptides, healthy donor CD8+ T-cells, multimer staining
Source text: In order to obtain information regarding the immunogenicity of the TUMAPs of the present invention, the inventors performed investigations using an in vitro T-cell priming assay based on repeated stimulations of CD8+ T-cells with artificial antigen presenting cells (aAPCs) loaded with peptide/MHC complexes and anti-CD28 antibody.
In order to perform in vitro stimulations by artificial antigen presenting cells loaded with peptide-MHC complex (pMHC) and anti-CD28 antibody, the inventors first isolated CD8+ T-cells from fresh HLA-A*02 leukapheresis products via positive selection using CD8 microbeads (Miltenyi Biotec, Bergisch-Gladbach, Germany) of healthy donors obtained from the University clinics Mannheim, Germany, after informed consent.
PBMCs and isolated CD8+ lymphocytes were incubated in T-cell medium (TCM) until use consisting of RPMI-Glutamax (Invitrogen, Karlsruhe, Germany) supplemented with 10% heat inactivated human AB serum (PAN-Biotech, Aidenbach, Germany), 100 U/ml Penicillin/100 μg/ml Streptomycin (Cambrex, Cologne, Germany), 1 mM sodium pyruvate (CC Pro, Oberdorla, Germany), 20 μg/ml Gentamycin (Cambrex). 2.5 ng/ml IL-7 (PromoCell, Heidelberg, Germany) and 10 U/ml IL-2 (Novartis Pharma, Nürnberg, Germany) were also added to the TCM at this step.
Generation of pMHC/anti-CD28 coated beads, T-cell stimulations and readout was performed in a highly defined in vitro system using four different pMHC molecules per stimulation condition and 8 different pMHC molecules per readout condition.
The purified co-stimulatory mouse IgG2a anti human CD28 Ab 9.3 (Jung et al., 1987) was chemically biotinylated using Sulfo-N-hydroxysuccinimidobiotin as recommended by the manufacturer (Perbio, Bonn, Germany). Beads used were 5.6 μm diameter streptavidin coated polystyrene particles (Bangs Laboratories, Illinois, USA).
800.000 beads/200 μl were coated in 96-well plates in the presence of 4×12.5 ng different biotin-pMHC, washed and 600 ng biotin anti-CD28 were added subsequently in a volume of 200 μl. Stimulations were initiated in 96-well plates by co-incubating 1×10^6 CD8+ T-cells with 2×10^5 washed coated beads in 200 μl TCM supplemented with 5 ng/ml IL-12 (PromoCell) for 3 days at 37° C. Half of the medium was then exchanged by fresh TCM supplemented with 80 U/ml IL-2 and incubating was continued for 4 days at 37° C. This stimulation cycle was performed for a total of three times. For the pMHC multimer readout using 8 different pMHC molecules per condition, a two-dimensional combinatorial coding approach was used as previously described (Andersen et al., 2012) with minor modifications encompassing coupling to 5 different fluorochromes. Finally, multimeric analyses were performed by staining the cells with Live/dead near IR dye (Invitrogen, Karlsruhe, Germany), CD8-FITC antibody clone SK1 (BD, Heidelberg, Germany) and fluorescent pMHC multimers. For analysis, a BD LSRII SORP cytometer equipped with appropriate lasers and filters was used. Peptide specific cells were calculated as percentage of total CD8+ cells. Evaluation of multimeric analysis was done using the FlowJo software (Tree Star, Oreg., USA). In vitro priming of specific multimer+ CD8+ lymphocytes was detected by comparing to negative control stimulations.

| Peptide exchange (MHC class I binding score, peptide exchange yield) (HLA-A*02:01) | Substance | further results |
| --- | --- | --- |
| “++++” (≥75% = ++++) | 147 (TLTELRAFL; listed as Homo sapiens) [compound 147] | – |
| “+++” (≥50 = +++) | 157 (SLIERDLKL; listed as Homo sapiens) [compound 157] | – |
| “++++” (≥75% = ++++) | 95 (AILDAHIEV; listed as Homo sapiens) [compound 95] | – |
| “+++” (≥50 = +++) | 140 (LLNEILEQV; listed as Homo sapiens) [compound 140] | – |
| “++” (≥20% = ++) | 152 (KLLAVIHEL; listed as Homo sapiens) [compound 152] | – |
| “+++” (≥50 = +++) | 81 (ALLSQQTHL; listed as Homo sapiens) [compound 81] | – |
| “++” (≥20% = ++) | 103 (FLFGYPKRL; listed as Homo sapiens) [compound 103] | – |
| “+++” (≥50 = +++) | 87 (LLFDAPDLRL; listed as Homo sapiens) [compound 87] | – |
| “+++” (≥50 = +++) | 138 (KQFEGTVEI; listed as Homo sapiens) [compound 138] | – |
| “++” (≥20% = ++) | 135 (KLQEEIPVL; listed as Homo sapiens) [compound 135] | – |
| “+++” (≥50 = +++) | 173 (KLGDLMVLL; listed as Homo sapiens) [compound 173] | – |
| “++” (≥20% = ++) | 98 (AMNGKSFSV; listed as Homo sapiens) [compound 98] | – |
| “+++” (≥50 = +++) | 92 (WIDDTSAFV; listed as Homo sapiens) [compound 92] | – |
| “++” (≥20% = ++) | 120 (VLYEGVDEV; listed as Homo sapiens) [compound 120] | – |
| “++” (≥20% = ++) | 159 (VLVDDDGIKVV; listed as Homo sapiens) [compound 159] | – |
| “+++” (≥50 = +++) | 101 (GLSEGHTFQV; listed as Homo sapiens) [compound 101] | – |
| “+++” (≥50 = +++) | 144 (LLNDRIWLA; listed as Homo sapiens) [compound 144] | – |
| “+++” (≥50 = +++) | 181 (NLFDLGGQYLRV; listed as Homo sapiens) [compound 181] | – |
| “+++” (≥50 = +++) | 175 (TLLGGKEAQALGV; listed as Homo sapiens) [compound 175] | – |
| “++++” (≥75% = ++++) | 125 (KLGDFGLLVEL; listed as Homo sapiens) [compound 125] | – |
| “+++” (≥50 = +++) | 183 (TLQEVVTGV; listed as Homo sapiens) [compound 183] | – |
| “++” (≥20% = ++) | 113 (ILYDLQQNL; listed as Homo sapiens) [compound 113] | – |
| “++” (≥20% = ++) | 79 (SLAADQLLKL; listed as Homo sapiens) [compound 79] | – |

The remaining lines, values behind:

| Substance | Peptide exchange (MHC class I binding score, peptide exchange yield) (HLA-A*02:01) | further results |
| --- | --- | --- |
| 19 (RLYTKLLNEA; listed as Homo sapiens) [compound 19] | “+++” (≥50 = +++) | Wells positive [%] (CD8+ T-cells): “+++” (50%-69% = +++) |
| 11 (YLFEKTFNM; listed as Homo sapiens) [compound 11] | “+++” (≥50 = +++) | Wells positive [%] (CD8+ T-cells): “+” (<20% = +) |
| 1 (ALIKQLFEA; listed as Homo sapiens) [compound 1] | ″+++” (≥50 = +++) | Wells positive [%] (CD8+ T-cells): ″+” (<20% = +) |
| 37 (GLFAGLGGAGA; listed as Homo sapiens) [compound 37] | “+++” (≥50 = +++) | Wells positive [%] (CD8+ T-cells): “+” (<20% = +) |
| 32 (KLNTETFGV; listed as Homo sapiens) [compound 32] | “++” (≥20% = ++) | Wells positive [%] (CD8+ T-cells): “++” (20%-49% = ++) |
| 38 (SLAPTPVSA; listed as Homo sapiens) [compound 38] | “++” (≥20% = ++) | Wells positive [%] (CD8+ T-cells): “+” (<20% = +) |
| 10 (RMYNKIFAI; listed as Homo sapiens) [compound 10] | “+++” (≥50 = +++) | Wells positive [%] (CD8+ T-cells): “++++” (> = 70% = ++++) |
| 5 (WLFDDGGLTL; listed as Homo sapiens) [compound 5] | “++++” (≥75% = ++++) | Wells positive [%] (CD8+ T-cells): “++” (20%-49% = ++) |
| 42 (SILDDSFKL; listed as Homo sapiens) [compound 42] | “++++” (≥75% = ++++) | Wells positive [%] (CD8+ T-cells): “+” (<20% = +) |
| 220 (KMDPVAYRV; listed as Homo sapiens) [compound 220] | – | donors (in vitro immunogenicity, positive donors) (CD8+ T-cells): ++++ (>=70% = ++++); wells (in vitro immunogenicity, positive wells) (CD8+ T-cells): +++ (50% − 69% = +++) |
| 3 (RLIPDTLYSV; listed as Homo sapiens) [compound 3] | – | Wells positive [%] (CD8+ T-cells): “+++” (50%-69% = +++) |
| 219 (FLDEKGRCV; listed as Homo sapiens) [compound 219] | – | donors (in vitro immunogenicity, positive donors) (CD8+ T-cells): +++ (50% − 69% = +++); wells (in vitro immunogenicity, positive wells) (CD8+ T-cells): ++ (20% − 49% = ++) |
| 35 (KLLDLTVRI; listed as Homo sapiens) [compound 35] | “+++” (≥50 = +++) | – |
| 69 (GMLNEAEGKAIKL; listed as Homo sapiens) [compound 69] | “++” (≥20% = ++) | – |
| 43 (TLDAAQPRV; listed as Homo sapiens) [compound 43] | “++” (≥20% = ++) | – |
| 63 (KLFSILSTV; listed as Homo sapiens) [compound 63] | “++” (≥20% = ++) | – |
| 26 (GLASKENFSNVSL; listed as Homo sapiens) [compound 26] | “++” (≥20% = ++) | – |
| 44 (SLESKLTSV; listed as Homo sapiens) [compound 44] | “+++” (≥50 = +++) | – |
| 66 (GLDDGPDFL; listed as Homo sapiens) [compound 66] | “++” (≥20% = ++) | – |
